Test results: patent publication US20090203610A1, “METHODS OF TREATING OBESITY OR DIABETES USING NT-4/5” (RINAT NEUROSCIENCE CORPORATION, priority 2004, published 2009)

What was measured:
db/db mice [1] = test: Blood glucose levels in db/db mice (Example 1); format: in vivo
Experimental: Administration of NT-4/5 and reference substances: Rosiglitazone (3 mg/kg, Sequoia Research Products Ltd., UK), a thiazolidinedione compound for the therapy of type 2 diabetes, was used in the present experiment as a reference. Phosphate buffer saline was used as vehicle in this experiment. NT-4/5 was obtained from Genentech.
(§1) A difference was considered significant for p<0.05.

db/db mice [2] = test: HbA1c in db/db mice (Example 1); format: in vivo
Experimental: as §1
HbA1c levels were determined using an HbA1c kit (ref. 650262, Beckman Coulter, France) and a Synchron CX4 synchronizer. HbA1c is an indicator for blood glucose control over the last 2-3 months. The normal level of HbA1c in C57BL/6J mouse (determined by measuring 8 normal healthy C57BL/6J mice) was about 3.5%.

db/db mice [3] = test: Blood triglyceride levels in db/db mice (Example 1); format: in vivo
Experimental: Test animals: 24 female 10-12 weeks old db/db mice (C57BL/Ks J Rj-db/db, Janvier, France), weighing in the target range of 40-50 g, were used in this study. […] Upon receipt at animal facilities, they were housed 4 per cage covered with filtered caps and at least a 5-day acclimation period was observed.
(§2) The mice were divided into three groups of 8 mice each (groups 1-3). Each group was treated with vehicle (PBS) subcutaneously (s.c.), 3 mg/kg Rosiglitazone orally (p.o.), or 20 mg/kg NT-4/5 subcutaneously (s.c.). From day 1 to day 5 (T1-T5) and then from day 8 to day 12 (T8-T12), the mice in groups 2 and 3 were dosed once daily for 5 consecutive days, with a volume of 10 ml/kg.
Collection of samples for analysis: One day before beginning the treatment (T0), non fasted db/db mice were weighed and blood samples were collected through the retro-orbital plexus (about 300 μL/mouse) under isoflurane anesthesia. Similarly, at day 5 (T5), day 12 (T12), day 19 (T19) and day 26 (T26), two hours after the last administration, blood samples were collected through the retro-orbital plexus under isoflurane anesthesia in non fasted mice. […] An aliquot of serum was used for measuring glucose levels, the remaining was frozen until use.
(§3) Analysis of blood samples in db/db mice: Pre- and post dose serum levels of glucose, HbA1c, cholesterol and triglycerides, insulin, and non esterified fatty acids (NEFA), as well as aspirate amino-transferase (AST) and alanine amino-transferase activities (ALT) activities, were determined at different time points, as described further herein. At each time point and for each parameter, a mean % of the effect was calculated according to the following formula: ((T final−T initial)/T initial)*100. Statistical analysis was consistent in a one-way analysis of variance followed by multiple comparisons versus the vehicle group (Dunnett's test) on final values. In case the equal variance test fails, a Kruskall-Wallis one-way analysis of variance on ranks was conducted. A difference was considered significant for p<0.05.

db/db mice [4] = test: Total blood cholesterol levels in db/db mice (Example 1); format: in vivo
Experimental: as §1
The blood triglyceride level and the total blood cholesterol level were determined with a triglyceride assay kit (ref 445850, Beckman Coutler, France) and a total cholesterol kit (ref 467825, Beckman Coutler, France), respectively, using a Synchron CX4 analyzer.

db/db mice [5] = test: Serum nonesterified fatty acids (NEFA) in db/db mice (Example 1); format: in vivo
Experimental: as §1
Serum nonesterified fatty acids (NEFA) levels were determined by calorimetric method using a non esterified fatty acids kit (ref. FA 15, Randox, France).

db/db mice [6] = test: Blood insulin level by ELISA in db/db mice (Example 1); format: in vivo; design: blood insulin level at T5 / blood insulin level at T12 / blood insulin level at T19 / blood insulin level at T26: unit not given here
Experimental: as §1
The blood insulin level was determined by ELISA using an Insulin ELIT Plus kit (ref. INSRAT01-8N, Eurobio, France).

db/db mice [7] = test: Body weight of db/db mice (Example 1); format: in vivo; conditions: for body weight, mean / body weight expressed as % of baseline, mean: NT-4/5 20 mg/kg s.c., Rosiglitazone 3 mg/kg p.o.
Experimental: Throughout the experiment period (T1-T26), daily individual body weights as well as food intake per cage were measured.

db/db mice [8] = test: Serum transaminase (AST, ALT) activity in db/db mice (Example 1)
Experimental: Test animals: 24 female 10-12 weeks old db/db mice (C57BL/Ks J Rj-db/db, Janvier, France), weighing in the target range of 40-50 g, were used in this study. These mice were housed in a temperature (19.5-24.5° C.) and relative humidity (45-65%) controlled room with a 12-hour light/dark cycle, with ad libitum access to filtered tap-water and irradiated pelleted laboratory chow (SAFE, France) throughout the study. Upon receipt at animal facilities, they were housed 4 per cage covered with filtered caps and at least a 5-day acclimation period was observed.
as §2
Collection of samples for analysis: One day before beginning the treatment (T0), non fasted db/db mice were weighed and blood samples were collected through the retro-orbital plexus (about 300 μL/mouse) under isoflurane anesthesia. Similarly, at day 5 (T5), day 12 (T12), day 19 (T19) and day 26 (T26), two hours after the last administration, blood samples were collected through the retro-orbital plexus under isoflurane anesthesia in non fasted mice.
as §3
Aspartate amino-transferase (AST) and alanine amino-transferase (ALT) activities were determined with an AST kit (ref. 442665, Beckman Coulter, France), an ALT kit (ref. 442620, Beckman Coulter, France), using a Synchron CX4 analyzer.

[9] = day 0, before treatment, NT-4/5 20 mg/kg s.c., Rosiglitazone 3 mg/kg p.o.
[10] = day 5, NT-4/5 20 mg/kg s.c., Rosiglitazone 3 mg/kg p.o.
[11] = day 5 vs day 0, NT-4/5 20 mg/kg s.c., Rosiglitazone 3 mg/kg p.o.
[12] = day 12, NT-4/5 20 mg/kg s.c., Rosiglitazone 3 mg/kg p.o.
[13] = day 12 vs day 0, NT-4/5 20 mg/kg s.c., Rosiglitazone 3 mg/kg p.o.
[14] = day 19 vs day 0, NT-4/5 20 mg/kg s.c., Rosiglitazone 3 mg/kg p.o.
[15] = day 26 vs day 0, NT-4/5 20 mg/kg s.c., Rosiglitazone 3 mg/kg p.o.
[16] = day 26, NT-4/5 20 mg/kg s.c., Rosiglitazone 3 mg/kg p.o.
[17] = day 19, NT-4/5 20 mg/kg s.c., Rosiglitazone 3 mg/kg p.o.

B1: NT-4/5: mature human neurotrophin-4/5 (SEQ ID NO:1), obtained from Genentech or produced in E. coli (protein, listed as Homo sapiens)
chain: GVSETAPASRRGELAVCDAVSGWVTDRRTAVDLRGREVEVLGEVPAAGGSPLRQYFFETRCKADNAEEGGPGAGGGGCRGVDRRHWVSECKAKQSYVRALTADAQGRVGWRWIRIDTACVCTLLSRTGRA
blood glucose levels T0 (db/db mice [1]; [9]): 36.95 mM
blood glucose levels T5 (db/db mice [1]; [10]): 15.78 mM
blood glucose % effect T5-T0 (db/db mice [1]; [11]): −56.4%
blood glucose levels T12 (db/db mice [1]; [12]): 13.56 mM
blood glucose % effect T12-T0 (db/db mice [1]; [13]): −62.6%
blood glucose levels T19 (db/db mice [1]; day 19 (dosing stopped day 12), NT-4/5 20 mg/kg s.c., Rosiglitazone 3 mg/kg p.o.): 12.65 mM
blood glucose % effect T19-T0 (db/db mice [1]; [14]): −65.2%
blood glucose levels T26 (db/db mice [1]; day 26 (dosing stopped day 12), NT-4/5 20 mg/kg s.c., Rosiglitazone 3 mg/kg p.o.): 22.50 mM
blood glucose % effect T26-T0 (db/db mice [1]; [15]): −37.9%
level of blood glucose lower than that of vehicle treated mice (db/db mice [1]; throughout the rest of the study, 20 mg/kg s.c.): at least 50%
HbA1c level decrease at T26 (db/db mice [2]; T26 as compared to T0): 30.4%
HbA1c T0 (db/db mice [2]; [9]): 5.81%
HbA1c T12 (db/db mice [2]; [12]): 5.82%
HbA1c % effect T12-T0 (db/db mice [2]; [13]): −0.2%
HbA1c T26 (db/db mice [2]; [16]): 4.08%
HbA1c % effect T26-T0 (db/db mice [2]; [15]): −30.4%
triglycerides levels T0 (db/db mice [3]; [9]): 1.51 mM
triglycerides levels T5 (db/db mice [3]; [10]): 0.73 mM
triglycerides % effect T5-T0 (db/db mice [3]; [11]): −48.8%
triglycerides levels T12 (db/db mice [3]; [12]): 0.84 mM
triglycerides % effect T12-T0 (db/db mice [3]; [13]): −40.9%
triglycerides levels T19 (db/db mice [3]; [17]): 1.07 mM
triglycerides % effect T19-T0 (db/db mice [3]; [14]): −28.0%
triglycerides levels T26 (db/db mice [3]; [16]): 1.13 mM
triglycerides % effect T26-T0 (db/db mice [3]; [15]): −25.2%
blood triglyceride levels relative to normal level (db/db mice [3]; normal level 1.2±0.08 mM in C57BL/6J mice): reduced to below normal level
blood cholesterol level decrease (db/db mice [4]; 20 mg/kg s.c., not statistically significant): 20-30%
cholesterol levels T0 (db/db mice [4]; [9]): 3.42 mM
cholesterol levels T5 (db/db mice [4]; [10]): 2.85 mM
cholesterol % effect T5-T0 (db/db mice [4]; [11]): −16.4%
cholesterol levels T12 (db/db mice [4]; [12]): 2.66 mM
cholesterol % effect T12-T0 (db/db mice [4]; [13]): −23.7%
cholesterol levels T19 (db/db mice [4]; [17]): 2.40 mM
cholesterol % effect T19-T0 (db/db mice [4]; [14]): −31.7%
cholesterol levels T26 (db/db mice [4]; [16]): 2.67 mM
cholesterol % effect T26-T0 (db/db mice [4]; [15]): −23.5%
effect on blood level of NEFA (db/db mice [5]; 20 mg/kg s.c.): did not seem to have affected the blood level of NEFA significantly
NEFA levels T0 (db/db mice [5]; [9]): 0.788 mM
NEFA levels T5 (db/db mice [5]; [10]): 0.780 mM
NEFA % effect T5-T0 (db/db mice [5]; [11]): −0.1%
NEFA levels T12 (db/db mice [5]; [12]): 0.679 mM
NEFA % effect T12-T0 (db/db mice [5]; [13]): −8.5%
NEFA levels T19 (db/db mice [5]; [17]): 0.521 mM
NEFA % effect T19-T0 (db/db mice [5]; [14]): −30.4%
NEFA levels T26 (db/db mice [5]; [16]): 0.411 mM
NEFA % effect T26-T0 (db/db mice [5]; [15]): −44.5%
blood insulin level at T5 (db/db mice [6]; T5): 1.84
blood insulin level at T12 (db/db mice [6]; T12): 0.91
blood insulin level at T19 (db/db mice [6]; T19): 7.6
blood insulin level at T26 (db/db mice [6]; T26): 11.58
insulin levels T0 (db/db mice [6]; [9]): 7.04 nM
insulin levels T5 (db/db mice [6]; [10]): 1.84 nM
insulin % effect T5-T0 (db/db mice [6]; [11]): −72.0%
insulin levels T12 (db/db mice [6]; [12]): 0.91 nM
insulin % effect T12-T0 (db/db mice [6]; [13]): −84.5%
insulin levels T19 (db/db mice [6]; [17]): 7.60 nM
insulin % effect T19-T0 (db/db mice [6]; [14]): 17.1%
insulin levels T26 (db/db mice [6]; [16]): 11.58 nM
insulin % effect T26-T0 (db/db mice [6]; [15]): 73.1%
insulin level relative to normal level (db/db mice [6]; normal about 0.118±0.010 nM): not reduced to normal level
body weight during treatment (db/db mice [7]; 20 mg/kg s.c.): gradually lost weight during the treatment
body weight, mean (db/db mice [7]; Day 0): 41.8 g
body weight expressed as % of baseline, mean (db/db mice [7]; Day 1): 97.8 % of baseline
body weight, mean (db/db mice [7]; Day 1): 40.8 g
body weight expressed as % of baseline, mean (db/db mice [7]; Day 2): 95.7 % of baseline
body weight, mean (db/db mice [7]; Day 2): 40.0 g
body weight expressed as % of baseline, mean (db/db mice [7]; Day 3): 94.6 % of baseline
body weight, mean (db/db mice [7]; Day 3): 39.5 g
body weight expressed as % of baseline, mean (db/db mice [7]; Day 4): 92.9 % of baseline
body weight, mean (db/db mice [7]; Day 4): 38.8 g
body weight expressed as % of baseline, mean (db/db mice [7]; Day 5): 91.6 % of baseline
body weight, mean (db/db mice [7]; Day 5): 38.3 g
body weight expressed as % of baseline, mean (db/db mice [7]; Day 6): 88.5 % of baseline
body weight, mean (db/db mice [7]; Day 6): 37.0 g
body weight expressed as % of baseline, mean (db/db mice [7]; Day 7): 87.4 % of baseline
body weight, mean (db/db mice [7]; Day 7): 36.5 g
body weight expressed as % of baseline, mean (db/db mice [7]; Day 8): 87.3 % of baseline
body weight, mean (db/db mice [7]; Day 8): 36.5 g
body weight expressed as % of baseline, mean (db/db mice [7]; Day 9): 86.5 % of baseline
body weight, mean (db/db mice [7]; Day 9): 36.6 g
body weight expressed as % of baseline, mean (db/db mice [7]; Day 10): 85.4 % of baseline
body weight, mean (db/db mice [7]; Day 10): 36.1 g
body weight expressed as % of baseline, mean (db/db mice [7]; Day 11): 84.1 % of baseline
body weight, mean (db/db mice [7]; Day 11): 35.6 g
body weight expressed as % of baseline, mean (db/db mice [7]; Day 12): 83.3 % of baseline
body weight, mean (db/db mice [7]; Day 12): 35.2 g
body weight expressed as % of baseline, mean (db/db mice [7]; Day 13): 80.8 % of baseline
body weight, mean (db/db mice [7]; Day 13): 34.2 g
body weight expressed as % of baseline, mean (db/db mice [7]; Day 14): 79.8 % of baseline
body weight, mean (db/db mice [7]; Day 14): 33.7 g
body weight expressed as % of baseline, mean (db/db mice [7]; Day 15): 80.1 % of baseline
body weight, mean (db/db mice [7]; Day 15): 33.9 g
body weight expressed as % of baseline, mean (db/db mice [7]; Day 18): 83.1 % of baseline
body weight, mean (db/db mice [7]; Day 18): 35.1 g
body weight expressed as % of baseline, mean (db/db mice [7]; Day 19): 84.4 % of baseline
body weight, mean (db/db mice [7]; Day 19): 35.7 g
body weight expressed as % of baseline, mean (db/db mice [7]; Day 20): 84.1 % of baseline
body weight, mean (db/db mice [7]; Day 20): 35.6 g
body weight expressed as % of baseline, mean (db/db mice [7]; Day 21): 85.6 % of baseline
body weight, mean (db/db mice [7]; Day 21): 36.2 g
body weight expressed as % of baseline, mean (db/db mice [7]; Day 22): 86.4 % of baseline
body weight, mean (db/db mice [7]; Day 22): 36.5 g
body weight expressed as % of baseline, mean (db/db mice [7]; Day 25): 91.7 % of baseline
body weight, mean (db/db mice [7]; Day 25): 38.8 g
body weight expressed as % of baseline, mean (db/db mice [7]; Day 26): 93.1 % of baseline
body weight, mean (db/db mice [7]; Day 26): 39.4 g
effect on AST and/or ALT levels, or AST/ALT ratios (db/db mice [8]; 20 mg/kg s.c.): did not have significant effect
ALT/AST ratio T0 (db/db mice [8]; [9]): 1.17
ALT/AST ratio T5 (db/db mice [8]; [10]): 0.73
ALT/AST ratio % effect T5-T0 (db/db mice [8]; [11]): −32.7%
ALT/AST ratio T12 (db/db mice [8]; [12]): 0.87
ALT/AST ratio % effect T12-T0 (db/db mice [8]; [13]): −26.6%
ALT/AST ratio T19 (db/db mice [8]; [17]): 0.67
ALT/AST ratio % effect T19-T0 (db/db mice [8]; [14]): −45.6%
ALT/AST ratio T26 (db/db mice [8]; [16]): 0.99
ALT/AST ratio % effect T26-T0 (db/db mice [8]; [15]): −17.6%
